# Data taken from IntAct's records for PubMed 11734542.
# B1: Protein phosphatase EYA1 (Mus musculus), P97767 (parent)
# chain: MEMQDLTSPHSRLSGSSESPSGPKLDSSHINSTSMTPNGTEVKTEPMSSSEIASTAADGSLDSFSGSALGSSSFSPRPAHPFSPPQIYPSKSYPHILPTPSSQTMAAYGQTQFTTGMQQATAYATYPQPGQPYGISSYGALWAGIKTESGLSQSQSPGQTGFLSYGTSFGTPQPGQAPYSYQMQGSSFTTSSGLYSGNNSLTNSSGFNSSQQDYPSYPGFGQGQYAQYYNSSPYPAHYMTSSNTSPTTPSTNATYQLQEPPSGVTSQAVTDPTAEYSTIHSPSTPIKETDSERLRRGSDGKSRGRGRRNNNPSPPPDSDLERVFIWDLDETIIVFHSLLTGSYANRYGRDPPTSVSLGLRMEEMIFNLADTHLFFNDLEECDQVHIDDVSSDDNGQDLSTYNFGTDGFPAAATSANLCLATGVRGGVDWMRKLAFRYRRVKEIYNTYKNNVGGLLGPAKREAWLQLRAEIEALTDSWLTLALKALSLIHSRTNCVNILVTTTQLIPALAKVLLYGLGIVFPIENIYSATKIGKESCFERIIQRFGRKVVYVVIGDGVEEEQGAKKHAMPFWRVSSHSDLMALHHALELEYL
# partner: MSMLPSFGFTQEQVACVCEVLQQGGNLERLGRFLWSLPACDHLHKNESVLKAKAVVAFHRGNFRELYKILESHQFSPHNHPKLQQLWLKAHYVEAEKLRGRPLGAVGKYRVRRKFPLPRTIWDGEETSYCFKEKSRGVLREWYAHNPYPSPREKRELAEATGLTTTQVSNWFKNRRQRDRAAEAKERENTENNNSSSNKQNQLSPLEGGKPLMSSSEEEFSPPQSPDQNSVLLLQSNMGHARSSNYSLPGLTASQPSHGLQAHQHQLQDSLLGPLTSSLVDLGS
# B2: Protein phosphatase EYA1 (Mus musculus), P97767 (parent)
# chain: B1 chain
# partner: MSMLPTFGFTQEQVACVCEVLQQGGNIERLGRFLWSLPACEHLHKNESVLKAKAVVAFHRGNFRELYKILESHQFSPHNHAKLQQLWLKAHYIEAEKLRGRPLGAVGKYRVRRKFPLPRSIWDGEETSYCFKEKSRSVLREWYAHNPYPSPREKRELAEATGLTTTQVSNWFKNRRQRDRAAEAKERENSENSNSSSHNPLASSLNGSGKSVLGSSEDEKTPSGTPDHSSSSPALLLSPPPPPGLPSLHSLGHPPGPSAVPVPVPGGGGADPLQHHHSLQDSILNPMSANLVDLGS
# Variants of: B1
# Conditions: with six1_mouse Six1, Q62231
row,Variant,effect of a mutation on the interaction
1,L504R,disrupting interaction
2,E330K,disrupting interaction
3,S486P,disrupting interaction

# Variants of: B1
# Conditions: with six1_mouse Six1, Q62231
# Remark: another data set of the same source
row,Variant,effect of a mutation on the interaction
1,L504R,decreasing interaction
2,E330K,decreasing interaction
3,S486P,decreasing interaction

# Variants of: B2
# Conditions: with six2_mouse Six2, Q62232
row,Variant,effect of a mutation on the interaction
1,G425S,decreasing interaction
2,S486P,decreasing interaction
3,E330K,decreasing interaction
4,L504R,decreasing interaction
